Test: soluble fraction after stress (log2 fold change); higher = more stays soluble; pooled small domains, quantitative proteomics
Details: stress: 50 degC
Outline: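 Each library was heated to 50°C as a stress step. The libraries, made up of small protein domains, were pooled and analysed at high throughput by quantitative proteomics. The reported value is the base-two logarithm of the fold change in each protein's soluble amount after stress, taken as a measure of aggregation propensity. The higher the value, the more protein stays in solution.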

Sequence | soluble fraction (log2)
HMSAPAKKPKIKVDLSKVHAGTIVRHKGYGLGQVKGIDGAIIVVTFDGVDKKFQFPGGFENGFLFLTED | -0.0311
HMDISKTLGKNPLLIIDNIEYRGKTLDEITAMTGVKRFENIDIYGSEEAMKTYGEKAKDGVIIAYTT | 0.0561
HMTNIQFINLKMTDNHPWIHQYIKDIILPPQTRIVMIKRNDIKTIPKGERRIEKDDELILSAFESQT | -1
HMVMSTDAELILEYLAKHQGEMEITDKSSPELIMDTFNMSKGAFKRALGSLYKSKTVVIESTKVLLNT | -1.44
HMLPAGAAAPLEDGSAPEGYTVKGNADSGLYHEPDGRWYDATVAEFWFKTAADAEAAGFRKAGS | 0.121
HMNTDALIGKTGYVTEIVGERHGRIQFSGGEWSARTEGVSIPVGAEVRVDRIDGATAVVSAV | 0.115
HMSETEWGEIYRKVMAAGLIPARSVRERLLALPSIEPLLQAAEAAGSKGMLDETLLDSLLSKT | 0.134
HMGESYQIKDGELLVDIAQRVKPAGMTLRQTINALVAANPRAFRNGNPDLMYRGATLTIPDGDTLRRLAH | 0.131
HMASIGTATVTADNLRLRSEAGTGAETLTMAPKGAEVTVEEDAGDGWYKVTYGDTEGYMSGEWLKITLA | -0.209
HMDMSDFEVVRDMYLTGKVWNAGDIVEAKGITGEVVRKGTNYLSFVDKNGKVHKAWLHEIEL | -0.188
HMSSSDYDVYNKAINLMLNLLKEPKSIEEVTASLNITKSQAITWINRALNEGKIIKTNRPVRYVVNN | -0.596
HMFEQRLRQAMKELRLKQVQVAGLTGKSRGAISQYLSGDRVPPDGVQREMAIALGLEADYFSR | -0.408
HMFTEIMAERNALIQAIQQNLPPQHIQSILSKKNKFRLEDLTNEELRDVWQWILNQRQAQQHQQQ | -0.171
HMIENGILELKGKTGVAQTVLRPSGKVLIDDEIYDAVALTGYIEKADKVLVTKVEATQLYVEK | 0.0576
HMSNLGLQIVRTLTDAGKGVVFITHKLKEALTIADRINVLRRGKVVGDADPKTASESQIAEMMVGRPVQL | -0.144
HMKEFEINSQWKPSLEVYDILSVKGGISRNFIEDSIPEFVLYWRGRGDKSNTWDSKFVQHVKRQWNFYSGL | -3.32
HMSEKRLHLVVDESDVNTRIDKYIADELDGYSRSFIQKLIKDNNVLVNGRAVKPNYNIGISDNIDIVLPKL | -0.00587
HMTSMTHLGRHPDSEISLDDISVSRRHAEIERQGHEYVLRDSGSLNGTYVNQQRVDSVVLQQGDEIL | 0.234
HMQGTTTELLIQKSALYEELNDPEKALNAMFDAFEMDSLNVNVLHRIVSLLLDKEENEKAILYNQLIIDH | 0.126

Sequence | soluble fraction (log2)
HMTFKDIMENYTISRIENTINSAVVFLDEINAYITIDKTQLPSNLRYDTDSKIMASQIPDDAKIKYFMIYW | -1.99
HMKSYAQIAEILSGQQPNTSRKEGSNLAVHADWIDALIAKYGTALRPEEANEVVKKEIGIVFSHVLEN | -0.0639
HMERDIATKHEVNRTVEAYSDIVKTLNLPSHKINLVEISFFNILKRSKPSPRENSILLGLAQKIKLHLEKK | -0.477
HMAATGPLTPREAEIARLAAGHLSNRQIAEQLVVSERTVENHLYRIFIKLAVTGRDDLAAALAATEQ | -0.689
HMTRQRQLIYNIIQRADDHPTAEMIYARAKAEMPSIAFGTVYRNLKLMVDAGEILHIPVAGEPDRYDK | -1.98
HMAPELSGEKLWDAQDVAMFLRVKPTTVWSYVSRDGFPAPVSQAGRAGMWSEPLVVQWYLSRPG | -0.223
HMESGSSKINQDILETFTRGKKSLSISDISRLSGHHRHTVARYLDNLVSSGKLEMRQHGQKKKYYLSDIQP | 0.0308
HMEDNLMIVVQVNGKKRSEIKVSIDASEDQIKQTALAEPNVQKFVEGHTIRKMILVPSKLLNIVV | -0.0375
HMDLSYPFTTVTTDNVNMRRSASSSSVVLERIDKGDSITVLGTSGNYYKVSYNDRTGYVLKQYVDVSAATT | -0.173
HMEIEYFDDEELDAYKGRKSDSYTDEEAAQFAEVLYTMRPSEVKDWTASLTLRGISMPDQIKDEAIMLME | -0.0466
HMNVWGLSERELEATRLLIEGFSSKEASARMGISPSTVRSLWGRARAKMGVDSIEDARELVA | -0.236
HMELPVAVPHTELSPEALRGVVESFVLREGTDYGERDVPFEAKVAQVIRQLERGEARIMFDPVTQSVQIVT | 0.102
HMDAAANTLRILKALSESPMSADRLAELLMEEGSGRNPRTIRRYIRALREAGFGVEHREGRYVL | -0.381
HMVLGSSVAMGQKIGDSDLTWVEVPLSSAFDRFLSEPEWRGSSDLVAARLLEAGVFLTEDDVVE | 0.0949
HMARVSGIDLPKNKRGYIGLTYIYGIGRSTALHILNSAGVDPEKKVHEWNDDETTAIRNIINAEIKVEGAL | -0.645
HMILYDDEYKGPRYRYGLHSRPLSPGAVPKGFIIHSDRPHPDFRHGTLDYPVKLPDDRAANFELIFIGEFD | -1.02
HMSKLQKTKYAGVYFTEDTQTRVKTYVARIVLAGIIDTEVVVGHSNDQHRTNAAIAYQRRLELIQEAKN | -3.86
HMSIQMPDLSITPVTDAKKKIESLQLQYKEVGEYNDSVIAGYVIRTEPASGSYLNEDEEVIIYVSKG | -0.246
HMGLTLREKMGHVLEMLKGREFLPFVSLFTVEEGRIGVVVTFMSILELVKEGILDLVQTESFGPIHVKAR | -0.326
